From patent publication US20040006022A1 (Harvard, published 2004) come the findings set out here.

Like-named read-outs stand apart in the source and are kept apart here. Bounds are passed on as bounds.

For test [1], the target named is T1, recombinant water-soluble 'empty' HLA-DR1 (DRB1*0101) (human).
T1 chain 1: not shown
T1 chain 2: not shown

Test [2] deals with T2, recombinant water-soluble 'empty' HLA-DR4 (DRB1*0401) (human).
T2 chain 1: not shown
T2 chain 2: not shown

Test [3] deals with T3, HLA-DR1 on L fibroblasts transfected with HLA-DR1 (L57.23) (human).
T3 chain 1: not shown
T3 chain 2: not shown
In words: cell-based or functional assay.

In test [4] the target is T4, HLA-DR4 on L fibroblasts transfected with HLA-DR4 (human).
T4 chain 1: not shown
T4 chain 2: not shown
In words: cell-based or functional assay.

Test [5] deals with T1, recombinant water-soluble 'empty' …. In words: competitive binding ELISA on recombinant HLA-DR1; competitor biotinylated YEAK. A general note: An ELISA detects its analyte on a solid surface through an enzyme-linked reagent.
Test [6] concerns the target T2, recombinant water-soluble 'empty' …. In words: competitive binding ELISA on recombinant HLA-DR4; competitor biotinylated YEAK.

With APKYVKQNTLKLATA (modifications not checked) [HA 306-318 bracketed by alanines at N- and C-terminals, …], the affinity determined by competition in test [1] worked out at 13 µM; in test [2], 26 µM; in test [5], 3.3 µM; in test [6], 8.2 µM. In addition, the inhibition of the response of 3.19 T cells (IL-2 secretion) in test [3] was > 98%. In addition, the inhibition of the response of 19.3 T cells (IL-2 secretion) in test [3] was > 95%. Also, the inhibition of the DR4 3838 T cell clone (IL-2 secretion) in test [4] is < 60%. Further, the inhibition of the DR4 D3 T cell clone (IL-2 secretion) in test [4] was < 60%.
